Earlier results as cited in publication PMC7654312.

Assays:
Lys210 [1] = biological target: Lys210 (UniProt position 210, VVKVAKLGISE)
Lys210 [2] = system: Lys210

Substance	pKa (Lys210 [1])	pKa (Lys210 [2])
Retro-aldolase RA95.0 (computationally designed) (synthetic construct (design on an indole-3-glycerol phosphate synthase TIM-barrel scaffold))	8.1	
Retro-aldolase RA95.5 (evolved variant of RA95.0) (synthetic construct (design on an indole-3-glycerol phosphate synthase TIM-barrel scaffold); T83K)		7.6
